Consider 19 sequences from a protein production outcome set (Wang et al. 2014).

The data set is described as follows: label from the status in PepcDB records.
As to “MISNFIKRAITGILFVAILVGCILYNSFSFGILFMAISALTIYEFGQLINSRAEGVNVNKTIIMLGGAYLFLAVMGFCIDAADSKIFIPYLLLLLYLMISELYLKKASSMLNWAYSMLSQLYIGLPFALLNVLAFHTDPEYSSVSYNPILPLSIFIFLWLSDTGAYCVGSLIGKHRLFERISPKKSWEGSIGGGVVAIGASFVLAHYFTIMSMWEWAGLALVVVVFGTWGDLTESLLKRQLHVKDSGTILPGHGGMLDRFDSALMAIPAAVFYLYALTWF”, the protein production entry was “failed”.

Regarding “MEKKEMEKLCQRCKQSYTDLSNETSSCRFHPSFFVCRRHDDQKRYYELKPDDPPYAAKFYDCCGAEDPNAPGVKDLACDLSAGYCLEPLLALHTATE”, the protein production result was “failed”.

For “DEETKAFEALLSNIVKPVASDIQARTVVLTWSPPSSLINGETDESSVPELYGYEVLISSTGKDGKYKSVYVGEETNITLNDLKPAMDYHAKVQAEYNSIKGTPSEAEIFTTLSCEPDIPNPPRI”, the protein production result is “not failed”.

In the case of “MAKLSRKERHRLLLQKIKENPFITDEELAEEFGCSVQTIRLDRAILDIKEVRERIKEMAKESLGKLKTISPRDVVGEIIDIELGSYAIATFEPELWMTFSNSQMVKGQHIYAFAESIAMSVIDAKAALIGIANIKYKTPVFANDRLVARAELKKKRNNKYIVWVFIKRNNEEVFRGKFILVAIDDENKETGQTGV”, the protein production entry was “failed”.

Take “MSDMGVIVKTNARALIPLIGVFGSYIILHGHLTPGGGFQGGATIVGTALLFLIAFGVDEAKKRINKDLYSALEGIGGLVFLGAAMLGLSVAFFYNILWHKGPLFNGRPGTLLSAGFLPIMNLGVGLKVFTGLVSAVFALALFRRWKE”: the protein production result is listed as “failed”.

Turning to “MVKWYKTYLEVYGKSFDEISDDSIRKVKRQLKERQNDSPLVSVVLIAHNEERHLISCIWSLSENHCHFPIEIIAVNNNSTDKTEEILKSLGVTYYNETKKGPGYARQCGLDHAKGKYHICIDADTLYPPHYIETHVKYLMNPKVACTFSLWSFMVDERHSRFGLWCYEGLRDIYLRLQAIQRPELCVRGMAFSFNTEIGRRFGFRTDIIRGEDGSLALAMKPYGKIVFITSRKARVLTSNGTLNSEGSLIDNIWIRVIKALKEITGLFIKKTAYKDKDSNLIKLEHHHHHH”, the protein production entry is reported as “failed”.

Take “NGVWVIGEQREGKINPVTIELIGEGRKLADQLGKELAVVIAGYEVEKEVKELLHYSVDKVYYINDPLLKDFTTDGYAISIANLIERKKPEVVLVGATSIGRDIAPRIAGKVGTGLTADCTKLEIDSTDNKLLQTRPAFGGNLMATIVCPKNRPQMSTVRPGVMAKAVRNESETGILEVVTPELTEKMIRTRLVEILPQEKKSVN”: the protein production result is “not failed”.

As to “MKKRLLKSFSFSYNSQDENRRLLERLMQYKSKDADKLNEENESIIRKRSAKLKRDLEDAVREPSSSSNAASSPGAASLQRNSSPAQFVGGLIGDEDFDEAAINGAMEAIGLDDNEYISARFTAGEIAENSRASIDTLKATGYLGQANPTKILMKFEAHENESHAVRWSPVERMVATGGADRKVKLWDIGKNSTEPRAVLSGSSAGINSVDFDSTGAYILGTSNDYGARVWTVMDNRLRHTLTGHSGKVMAAKYVQEPIKVVTGSHDRTLKIWDLRSIACIETKFAGSSCNDLVTTDSLGSTIISGHYDKKIRFWDIRTEKQADDVLMPAKITSLDLSKDCNYLICSVRDDTIKLLDLRKNQVISTFTNEHFKISCDFARASFNSSGLKIACGSADGAIYIWNVNGFLEATLKGHSTAVNAVSWSPNNNMLASVGKNKRCTIYSES”, the protein production result is given as “failed”.

As to “MKKTTLALSALALSLGLALSPLSATAAETSSATTAQQMPSLAPMLEKVMPSVVSINVEGSTTVNTPRMPRNFQQFFGDDSPFCQEGSPFQSSPFCQGGQGGNGGGQQQKFMALGSGVIIDADKGYVVTNNHVVDNATVIKVQLSDGRKFDAKMVGKDPRSDIALIQIQNPKNLTAIKMADSDALRVGDYTVAIGNPFGLGETVTSGIVSALGRSGLNAENYENFIQTDAAINRGNSGGALVNLNGELIGINTAILAPDGGNIGIGFAIPSNMVKNLTSQMVEYGQVKRGELGIMGTELNSELAKAMKVDAQRGAFVSQVLPNSSAAKAGIKAGDVITSLNGKPISSFAALRAQVGTMPVGSKLTLGLLRDGKQVNVNLELQQSSQNQVDSSSIFNGIEGAEMSNKGKDQGVVVNNVKTGTPAAQIGLKKGDVIIGANQQAVKNIAELRKVLDSKPSVLALNIQRGDSTIYLLMQ”, the protein production result was “failed”.

“MPHNLFSLFSQPLKPPLFEPGEPRFWDDPHISKSMLEAHLNQTHDGASRRNAEIEKTIRHLITSGFLKTGDQVLDLGCGPGLYSSKLCFEGMKVTGIDLSRRSIDYARAQAERDGQNIDYIYTDFFNIDYKETFDAVLQVYGEICTFSDEKRDLLLNLVHRALKDNGIFIFDVSTRELRMREGLKNRWYFSEGGFWRPGKHLVLEEGFDYPENDTWLNQYIIVDEDGTVKVYRLWLHDYSFETISQTLENNGFRVEKAWNNLSGELYQKGGDWIAIAAKKV”: the protein production result is reported as “failed”.

“MMGLKAHAMVLEKFNQPLVYKEFEISDIPRGSILVEILSAGVCGSDVHMFRGEDPRVPLPIILGHEGAGRVVEVNGEKRDLNGELLKPGDLIVWNRGITCGECYWCKVSKEPYLCPNRKVYGINRGCSEYPHLRGCYSSHIVLDPETDVLKVSEKDDLDVLAMAMCSGATAYHAFDEYPESFAGKTVVIQGAGPLGLFGVVIARSLGAENVIVIAGSPNRLKLAEEIGADLTLNRRETSVEERRKAIMDITHGRGADFILEATGDSRALLEGSELLRRGGFYSVAGVAVPQDPVPFKVYEWLVLKNATFKGIWVSDTSHFVKTVSITSRNYQLLSKLITHRLPLKEANKALELMESREALKVILYPEG”: the protein production result is recorded as “not failed”.

Turning to “ERRGFSAEDFKTFHPGGKLGSQLLLAHELAHSGEAVPLLPIGSPMSEAVIQMSSKGFGVVGVVGGDGELVGVITDGDLRRHMSQSLLLLTVETVMSHMPRVITPGMLASAAMEMMQSQKITVLFLVDDVGRPSGILHVHDLLRA”, the protein production result is given as “failed”.

For “ARNGDDCPLGPGRCCRLHTVRASLEDLGWADWVLSPREVQVTMCIGACPSQFRAANMHAQIKTSLHRLKPDTEPAPCCVPASYNPMVLIQKTDTGVSLQTYDDLLAKDCHCI”, the protein production entry is recorded as “failed”.

As to “MADSKKITFEMNESVLTAQFSRLDEMASVVERRFSELKMTIEDVGNADPGSKITESLGGLQSGLGTISSAFGQLGSSSEAITSGFGTAVGSVGGITDAFKNLGSSVQNGTLFSSLSTGIGGMSTMLGGVTGGVQGITNLASGFMELKNHLGGLMSSIGGVGGIMGKLTSPMGLVIIGIVALVAAFTYLMTTNESFRNTVMSVVTQVAQLFGQLVASLMPIIMQIITAVMQIGAALMPIVMQFISFFAQLLAQLMPFINMLIAMLMPVIMQIVQVVMSLVSALLPSIMTVIQGIMSVIQFLIPIIMKIATVVVQIVVTIISYISKIMPIVMMIIGVIISIITTIISYIVVIATTISNVIGKIISFIASVITSIIGIVQPIIGFITNIFSSIVTVIGAAFQMVFAVASKIWNAIMATISGIIDGIKSVITGISTTVSSVFNGVKRIITGVFDGIKGAWGGLTEFVGTIFDGVSNAIQTVVDNVKGFVNVVIRGINSAISLINKIPGVEIGKIPQLISGTTNFQGGFARMNEGGRGEMVVLPSGSQVIPHDATMKYARESARGNKSMLYTNQGTDLARVENLLERLLQKNPVIKMDDKVVSEVVSRNQANSFDQYNYTMGGAAYS”, the protein production entry is “failed”.

With “MDKKAMWDRFYTENGSKGQFKNFEWFFGFPSVKDLVLPALQAMSCSHSGPLHILDMGCGTSALGPCIYSTSPCAVRVTCADISPVAVKLMEEHTKSTSTQPCNPSSALVFLELDCTQMTGHFKSRSLDLILDKGTTDALVRSKEGQVKAGQILRQSLQVLRPSGSFLQFSDEDPDARLIWLEREVQGAEVTADVGVQEIGELRGVSYFCYQISPRSRPHS”, the protein production entry is reported as “failed”.

With “MKIEKQVNDLRIIELEKELENNPFIPILYWELGLNYLISVGEEKAEEIWSLGLLQCFTSFDEGLLSLVGFIEQHIELNKNDKQTVLILWQQIIKIVPNYLAGHLNLLVVACELKVFSAEKLAYLGTVALINSIDSGCISQQEEELLLRATLSILEFPTALSLDFLRSSIPLLVNLPWCDAVMAFANSMVYDKQLFSYGVEIAEICLQYSPNNLFILNDLIRFYGLRKDQDALLRTARNLLNIFRQQDFEPDFGFYLSSRLLSAFMTGNDWEQVQSIASIFKDYFILLQNEKSVVLNNFLRDRFWGLGFSLLYLFDEPESNRRCLNFNASIFQQNLTENQNKTICQEENLPKKKQVSLKRIGYIAHTLRQHSVGWLCRWLFKYHDREKFEIFVYLIGQPEDELTENWIYPNVSKYYHFGRDKNEIIKQIKQDQIQILVDLDVLTHNITAQVLAHKPAPVQVSWLGSDASGLPAIDYFIVDPYVVPDDAEGYYREKLWRLPQTYLAVDGFEMGTPTLSREQLGIKPNTVIYLSVQNKIKSNPNILKLQLQILQSVPDSVFLIKGGGDNELIRAMVEQLAKEMGLDLHRIRFLPKDGDEMTHRANLSIADVVLDTYPYNGATTTLETLWMEVPLVTRVGKQFASRNSYTFLTQLNIREGLAWNDQEYVYWGTRFGLEKSLREKVKNELNLGKYKSKLWRAKDFTQELELAYEGMWNGDLD”, the protein production result is reported as “failed”.

For the sequence “MVNLMILSGIVLLTCIISSKIFYKWGVPVLLVFIIIGMLFGSDGIGGIYFDNYNITYSLSSIALVFIMFYGGFCTEWKKARSVAIPSIMLSTLGVIITAGLTGLFCHFVLKTSIFEGLLLGCIVASTDAASVISILRSRNLKLKNNIDTLVEFESGSNDPTAYMLTSVMLIFITSNESVGIGLLGMIFKQIVFGVTVGLFLSKLAVFILRKVEFEIEGLYPIFTITVAILAYSISEFLGGNGYLSVFIAGIVMGNSKIPHKKSLNHFFDGLSWIMQIILFFMLGLLAFPSQLPSIAFEGIAISIFLILVGRPIAVFTILSWFKVPIKEQMFISWVGLRGAGSLVFAIYAITKTSAIENDIFHIIFFIALFSVAIQGTLIPWFAKKLDLICYEDDNHEDNMKNNIKDYIFEVKVGENNKVVNKAIMDSEIPDEILIVMIKRDNKVVIPKGFTIIKPNDTLVLTSENNEIMNSFLDEIR”, the protein production result was “failed”.

Take “TLPGRISRERRGHLLLLGLDRVAKRNAFDLPMLDDLVAALGEYEADDQLRCALLFAHGEHFTAGLDLANVGETFRQGWKLPEGAVDPWGTFGGRRPSKPLVVAVQGYCYTIGIELMLAADINLCASNARFAQLEVQRGILPFGGATLRMHQVAGWGNAMRWLLTGDEFDAHEAYRLGLVQEVTAPEDLLDHAIALAERVAAQAPLGVRATLGSARQALLEGEAVAAAALPEAARRLLDSEDAKEGLRALQERRPGRFE”: the protein production result was “failed”.

Take “NENPDKPTDDVNYNMNEPRLASTLRGGLIIEGNVEQRLKPLQIDFYSQMTVDGGGWGTKNYIQDDEWNNLVWEEYLKQIASINIVIRSLTEKDKDAYANTIAFARIWRVYVHTLAADKFGPMPFPAYEIVEANPPYKSLKDIYDEYFRELDAAINGFNDSAQPIFSDAGIDLIYKNDVSKWKRFANSLRLRLAVRLTEVDQEKCIAEANAAISSPAGLISDKADNAYMPPKADGSWGQDYNYTMFQITWSGPICMSKSVEKLVTNIGGVAWPQGVVNQTSGVAVSSVHPEKVDPRAPKIFQPGIENGDWKGLVYGPKAEEANTGIYQSKQCAELGFIIKDGYPYKSRPYDLFLSEEVHFLKAELYARGFIAGDAKSEYEAGVRASFATWGVTSEVDDYLTSTEKNEAGTSARYDDQQGAGNTALEKIITQKYIAGIPDLAQEGWNDKRRLNLPRLDVAVYRDQAVYNNNDKDILKSANFIKRMRYPTKESLINATEYEKGKSMLGGKGDIVSTPLWWDKNSNYCTSSK”: the protein production result is recorded as “not failed”.
